Assay results as given in publication PMC3501490, “An Investigation of Hierachical Protein Recruitment to the Inhibitory Platelet Receptor, G6B-b” (PLoS ONE, 2012).

Target: G6B-b dual phosphopeptide pY211/pY237 (Homo sapiens), O95866
Experiment: SPR

G6B-b dual phosphopeptide pY211/pY237 (Homo sapiens), O95866, sequence (O95866 206-241): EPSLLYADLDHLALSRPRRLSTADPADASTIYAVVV

- Kd: 0.48 nM
B1: SHP-2 tandem SH2, Q06124 (protein)
chain: WFHPNITGVEAENLLLTRGVDGSFLARPSKSNPGDFTLSVRRNGAVTHIKIQNTGDYYDLYGGEKFATLAELVQYYMEHHGQLKEKNGDVIELKYPLNCADPTSERWFHGHLSGKEAEKLLTEKGKHGSFLVRESQSHPGDFVLSVRTGDDKGESNDGKSKVTHVMIRCQELKYDVGGGERFDSLTDLVEHYKKNPMVETLGTVLQLKQPL
